Experimental data as given in US20250367130A1, “THERMORESPONSIVE HYDROGEL CONTAINING METAL-ORGANIC FRAMEWORK PARTICLES FOR NONINVASIVE OCULAR DRUG DELIVERY” (University of Pittsburgh - Of the Commonwealth System of …, priority 2024, published 2025).

Assay: Biodistribution study of ovalbumin in rabbit eye tissues and plasma, quantified with ELISA
Type: in vivo, New Zealand white rabbits
Protocol: Biodistribution studies involved healthy New Zealand white rabbits (n=5). The right eye of the rabbits was given a 100 μL of gel with the MOF and PLGA MP particles, independently, and a 50 μL injection of 10 mg/mL ovalbumin solution, for comparative purposes. The left eye was the experimental control. At 1 and 3 days, rabbits were sacrificed, and both eyes were removed. Aqueous humor, vitreous humor, retina-choroid and plasma were collected, and time-dependent concentrations were quantified with ELISA.
After one administration of the topical delivery system, ovalbumin is detectable in the aqueous humor, vitreous humor, retina-choroid, and plasma. […] However, these concentrations are 10^5 lower than what is seen with intravitreal injections after 3 days.

[1] = after one administration of the topical delivery system, rabbit

B1: ovalbumin (protein, UniProt P01012 2-386, looked up)
Ovalbumin: GSIGAASMEFCFDVFKELKVHHANENIFYCPIAIMSALAMVYLGAKDSTRTQINKVVRFDKLPGFGDSIEAQCGTSVNVHSSLRDILNQITKPNDVYSFSLASRLYAEERYPILPEYLQCVKELYRGGLEPINFQTAADQARELINSWVESQTNGIIRNVLQPSSVDSQTAMVLVNAIVFKGLWEKAFKDEDTQAMPFRVTEQESKPVQMMYQIGLFRVASMASEKMKILELPFASGTMSMLVLLPDEVSGLEQLESIINFEKLTEWTSSNVMEERKIKVYLPRMKMEEKYNLTSVLMAMGITDVFSSSANLSGISSAESLKISQAVHAAHAEINEAGREVVGSAEAGVDAASVSEEFRADHPFLFCIKHIATNAVLFFGRCVSP
notes: test agent, acting as a surrogate agent for other anti-VEGF proteins
- ovalbumin detection in aqueous humor (after one administration of the topical delivery system (100 μL gel with particles), rabbit): detectable
- ovalbumin concentration in retina-choroid relative to vitreous humor [1]: 9 ×
- ovalbumin concentration in the vitreous humor [1]: ~1 ng/mL
- ovalbumin detection in plasma [1]: detectable
- ovalbumin detection in retina-choroid [1]: detectable
- ovalbumin detection in vitreous humor [1]: detectable
- factor by which concentrations are lower than with intravitreal injections (topical delivery system vs intravitreal injection, after 3 days): 10^5
